Laboratory results reported in patent publication US20220332804A1 (CSL INNOVATION, published 2022).
Positions count from the first letter of the chain named.

Key:
Experiment in all cases: SPR, KD relative to WT C2;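 note: biacore SPR at 37 °C, anti-C2 mAbs captured via immobilised goat anti-human IgG, C2 alanine or serine surface mutants as analytes, 1:1 model fitted, double-referenced sensograms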
human C2 D417A = molecular target: T1, human C2 D417A (human, UniProt P06681 21-752)
T1 sequence: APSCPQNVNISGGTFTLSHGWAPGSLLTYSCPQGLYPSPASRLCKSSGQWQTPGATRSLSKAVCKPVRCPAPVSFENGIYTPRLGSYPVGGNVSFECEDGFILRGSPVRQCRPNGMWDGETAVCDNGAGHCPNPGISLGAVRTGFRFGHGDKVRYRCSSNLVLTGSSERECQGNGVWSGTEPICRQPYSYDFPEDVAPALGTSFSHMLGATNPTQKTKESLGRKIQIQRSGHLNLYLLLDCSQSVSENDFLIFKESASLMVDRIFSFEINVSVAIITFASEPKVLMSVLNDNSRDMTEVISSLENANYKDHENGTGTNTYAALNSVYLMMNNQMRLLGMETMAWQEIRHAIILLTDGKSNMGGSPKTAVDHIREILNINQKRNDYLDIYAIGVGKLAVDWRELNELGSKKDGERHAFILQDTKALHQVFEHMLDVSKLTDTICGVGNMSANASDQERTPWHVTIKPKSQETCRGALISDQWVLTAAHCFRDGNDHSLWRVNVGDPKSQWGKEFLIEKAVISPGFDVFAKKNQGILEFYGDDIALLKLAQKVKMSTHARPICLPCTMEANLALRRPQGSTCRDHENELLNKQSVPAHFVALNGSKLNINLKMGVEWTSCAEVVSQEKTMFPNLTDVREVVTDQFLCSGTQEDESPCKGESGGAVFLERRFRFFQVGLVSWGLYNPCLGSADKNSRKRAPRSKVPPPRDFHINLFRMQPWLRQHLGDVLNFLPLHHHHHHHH

human C2 H435A = molecular target: T2, human C2 H435A (human, UniProt P06681 21-752)
T2 sequence: T1 sequence with A397D, H415A

human C2 A709S = molecular target: T3, human C2 A709S (human, UniProt P06681 21-752)
T3 sequence: T1 sequence with A397D, A689S

human C2 S713A = molecular target: T4, human C2 S713A (human, UniProt P06681 21-752)
T4 sequence: T1 sequence with A397D, S693A

B1: RF16-226 (antibody, human IgG4 S228P, lambda)
heavy: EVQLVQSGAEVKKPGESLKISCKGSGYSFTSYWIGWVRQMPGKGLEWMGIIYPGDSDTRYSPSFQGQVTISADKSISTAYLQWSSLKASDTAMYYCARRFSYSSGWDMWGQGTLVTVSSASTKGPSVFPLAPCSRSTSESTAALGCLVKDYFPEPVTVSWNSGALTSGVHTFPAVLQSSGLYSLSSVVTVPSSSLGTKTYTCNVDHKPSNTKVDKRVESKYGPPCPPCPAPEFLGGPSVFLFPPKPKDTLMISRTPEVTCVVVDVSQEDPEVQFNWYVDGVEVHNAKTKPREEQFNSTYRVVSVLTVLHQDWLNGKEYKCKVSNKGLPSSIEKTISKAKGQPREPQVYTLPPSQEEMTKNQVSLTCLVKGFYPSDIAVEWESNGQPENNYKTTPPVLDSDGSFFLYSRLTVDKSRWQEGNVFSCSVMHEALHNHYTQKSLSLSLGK
light: SYELTQPPSVSVSPGQTARITCSGDALTSKYVAWYQQKSGLAPLLVIYEDTRRPSGIPAKFSGSSSGSVATLTISGAHGDDEADYYCYSTDASGHQRVFGGGTKLTVLSQPKAAPSVTLFPPSSEELQANKATLVCLISDFYPGAVTVAWKADGSPVKAGVETTKPSKQSNNKYAASSYLSLTPEQWKSHRSYSCQVTHEGSTVEKTVAPTECS
notes: pH-dependent anti-C2 antibody from a phage display library; also called WT
B1 showed a Fold diff (human C2 D417A) of 2 fold, a Fold diff (human C2 H435A) of 2 fold and a Fold diff (human C2 A709S) of 13 fold. The Fold diff (human C2 S713A) was 2 fold.
